Assays:
[1] = tested on: ZFP-TF 65918.T2A.57890 (two co-expressed ZFPs) (synthetic construct); assay: cell_activity; conditions: htau mouse hippocampus, 3E9 VG per hemisphere
[2] = tested on: ZFP-TF 73133 (R→Q variant anti-tau ZFP-KRAB) (synthetic construct); assay: cell_activity; conditions: up to, htau mouse hippocampus, AAV9 highest dose, 3 and 6 months

Substance | activity (% reduction of human tau mRNA) [1] | activity (% reduction of human tau mRNA) [2] | activity (% reduction of mouse tau mRNA) [1]
human MAPT gene target region (around TSS) | > 50 | 93 | 
mouse Mapt gene |  |  | > 50
